Kd, koff and kon data for 14 molecules are collected here from patent US20210388087A1 (Chugai, published 2021).

One assay concerns the target T1, Human CD3eg linker (human).
T1 construct: Single chain: CD3 epsilon and gamma subunits joined by a 29-mer linker, Flag-tag at the C-terminus; also called recombinant human CD3
T1 chain: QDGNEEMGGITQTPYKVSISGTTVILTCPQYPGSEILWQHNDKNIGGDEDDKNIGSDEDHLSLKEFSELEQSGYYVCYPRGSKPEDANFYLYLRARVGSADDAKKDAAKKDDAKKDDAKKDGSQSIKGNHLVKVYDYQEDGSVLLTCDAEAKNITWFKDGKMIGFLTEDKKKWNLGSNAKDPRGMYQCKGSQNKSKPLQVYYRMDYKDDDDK
The experiment in a line: SPR Biacore T200, 25 C, Ab captured on anti-human Fc, antigen as analyte.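 Also: Anti-Fc amine-coupled to a CM4 chip, recombinant human CD3 flowed over in 20 mM ACES buffer pH 7.4 with 150 mM NaCl and 0.05% Tween 20.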

A further assay concerns the target T2, Human CD137 ECD (human).
T2 construct: also called human CD137 extracellular domain; recombinant human CD137
Nature of the assay: SPR Biacore T200, 37 C, Ab captured on anti-human Fc, antigen as analyte.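 Also: recombinant human CD137 flowed over antibodies held by amine-coupled anti-human Fc on a CM4 chip, run in ACES pH 7.4 buffer with 150 mM NaCl and 0.05% Tween 20.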

T2 sequence (chain, as listed by the source limits assumed): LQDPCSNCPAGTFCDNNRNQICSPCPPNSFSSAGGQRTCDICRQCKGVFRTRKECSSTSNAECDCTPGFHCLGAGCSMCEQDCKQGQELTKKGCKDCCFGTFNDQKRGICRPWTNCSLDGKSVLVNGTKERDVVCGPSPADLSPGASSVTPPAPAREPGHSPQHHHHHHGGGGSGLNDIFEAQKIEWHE
Procedure for Human CD137 ECD: (§1) Binding affinity of Dual-Fab antibodies (Dual-Ig) to human CD3 were assessed at 25 degrees C. using Biacore T200 instrument (GE Healthcare). Anti-human Fc (GE Healthcare) was immobilized onto all flow cells of a CM4 sensor chip using amine coupling kit (GE Healthcare). Antibodies were captured onto the anti-Fc sensor surfaces, then recombinant human CD3 or CD137 was injected over the flow cell. All antibodies and analytes were prepared in ACES pH 7.4 containing 20 mM ACES, 150 mM NaCl, 0.05% Tween 20, 0.005% NaN3. Sensor surface was regenerated each cycle with 3M MgCl2. […] CD137 binding affinity assay was conducted in same condition except assay temperature was set at 37 degrees C.
Procedure for Human CD3eg linker: as §1

B1: H183/L072 (antibody, V domains shown)
VH: QVQLVESGGGLVQPGRSLRLSCAASGFTFSNAWMHWVRQAPGKGLEWVAQIKDKGNAYAAYYAPSVKGRFTISRDDSKNSIYLQMNSLKTEDTAVYYCHYVHYASASTVLPAFGVDAWGQGTTVTVSS
VL: DIVMTQSPLSLPVTPGEPASISCQASQELVHMNRNTYLHWYQQKPGQAPRLLIYKVSNRFPGVPDRFSGSGSGTDFTLKISRVEAEDVGVYYCAQGTSVPFTFGQGTKLEIK
notes: Dual-Fab antibody (Dual-Ig), bivalent IgG; also called parental Dual-Fab H183L072; dBBDu183H/dBBDu072L
For the molecule B1, in the assay with Human CD3eg linker, the Kd is 340 nM, the koff is 0.012 s⁻¹ and the kon was 35400 M⁻¹ s⁻¹.

B2: H1673L0943 (antibody, V domains shown)
VH: QVQLVESGGGLVQPGRSLRLSCAASGFVFSNVWFHWVRQAPGKGLEWVAQIKDKWNAYADYYAPSVKERFTISRDDSKNSIYLQMNSLKTEDTAVYYCHYIHYASASTLLPAEGIDAWGQGTTVTVSS
VL: DIVMTQSPLSLPVTPGEPASISCQPSEEVVHMNRNTYLHWYQQKPGQAPRLLIYKVSNLFPGVPDRFSGSGSGTDFTLKISRVEAEDVGVYYCAQGTHHPFTFGQGTKLEIK
notes: Dual-Ig, IgG; also called dBBDu183H1673/dBBDu072L0943
Regarding B2, in the assay with Human CD3eg linker, the Kd was 21 nM, the koff is 0.00116 s⁻¹ and the kon stood at 55000 M⁻¹ s⁻¹. Besides, in the assay with Human CD137 ECD, the affinity, expressed as Kd, was 59.1 nM; the off-rate (koff) was 0.000722 s⁻¹; the kon was found to be 12200 M⁻¹ s⁻¹.

B3: H1652L0943 (antibody, V domains shown)
VH: QVQLVESGGGLVQPGRSLRLSCAASGFVFSNVWFHWVRQAPGKGLEWVAQIKDYYNAYADYYAPSVEGRFTISRDDSKNSIYLQMNSLKTEDTAVYYCHYVHYASASTLLPAEGVDAWGQGTTVTVSS
VL: DIVMTQSPLSLPVTPGEPASISCQPSEEVVHMNRNTYLHWYQQKPGQAPRLLIYKVSNLFPGVPDRFSGSGSGTDFTLKISRVEAEDVGVYYCAQGTHHPFTFGQGTKLEIK
notes: Dual-Ig, IgG; also called dBBDu183H1652/dBBDu072L0943
In the assay with Human CD137 ECD, B3 displayed a Kd of 36.4 nM, a koff of 0.00047 s⁻¹ and a kon of 12900 M⁻¹ s⁻¹.

B4: H1673L0581 (antibody, V domains shown)
VH: QVQLVESGGGLVQPGRSLRLSCAASGFVFSNVWFHWVRQAPGKGLEWVAQIKDKWNAYADYYAPSVKERFTISRDDSKNSIYLQMNSLKTEDTAVYYCHYIHYASASTLLPAEGIDAWGQGTTVTVSS
VL: DIVMTQSPLSLPVTPGEPASISCQPSQEVVHMNRNTYLHWYQQKPGQAPRLLIYKVSNRFPGVPDRFSGSGSGTDFTLKISRVEAEDVGVYYCAQGTSHPFTFGQGTKLEIK
notes: Dual-Ig, IgG; also called dBBDu183H1673/dBBDu072L0581
Consider B4, for which, in the assay with Human CD3eg linker, the dissociation constant (Kd) was 13.3 nM, the koff stood at 0.00106 s⁻¹ and the kon stood at 79600 M⁻¹ s⁻¹. In the assay with Human CD137 ECD, this molecule yielded an equilibrium dissociation constant (Kd) of 80.4 nM, a koff of 0.00096 s⁻¹ and an on-rate (kon) of 11900 M⁻¹ s⁻¹.

B5: H1649L0943 (antibody, V domains shown)
VH: QVQLVESGGGLVQPGRSLRLSCAASGFVFSNVWFHWVRQAPGKGLEWVAQIKDKYNAYADYYAPSVKERFTISRDDSKNSIYLQMNSLKTEDTAVYYCHYVHYASASTLLPAEGVDAWGQGTTVTVSS
VL: DIVMTQSPLSLPVTPGEPASISCQPSEEVVHMNRNTYLHWYQQKPGQAPRLLIYKVSNLFPGVPDRFSGSGSGTDFTLKISRVEAEDVGVYYCAQGTHHPFTFGQGTKLEIK
notes: Dual-Ig, IgG; also called dBBDu183H1649/dBBDu072L0943
Take B5: in the assay with Human CD3eg linker, the Kd was found to be 789 nM, the koff amounted to 0.0481 s⁻¹ and the kon turned out to be 61000 M⁻¹ s⁻¹. Further, in the assay with Human CD137 ECD, the Kd was found to be 32.8 nM, the koff came out at 0.000468 s⁻¹ and the kon was 14300 M⁻¹ s⁻¹.

B6: H0868L0581 (antibody, V domains shown)
VH: QVQLVESGGGLVQPGRSLRLSCAASGFKFSNVWMHWVRQAPGKGLEWVAQIKDKYNAYAAYYAPSVKGRFTISRDDSKNSIYLQMNSLKTEDTAVYYCHYVHYASASTLLPAFGVDAWGQGTTVTVSS
VL: DIVMTQSPLSLPVTPGEPASISCQPSQEVVHMNRNTYLHWYQQKPGQAPRLLIYKVSNRFPGVPDRFSGSGSGTDFTLKISRVEAEDVGVYYCAQGTSHPFTFGQGTKLEIK
notes: Dual-Ig, IgG; also called H868L581; dBBDu183H0868/dBBDu072L0581
Take B6: in the assay with Human CD3eg linker, binding was put at a Kd of 157 nM, the koff was 0.0194 s⁻¹ and the kon stood at 123000 M⁻¹ s⁻¹. Moreover, in the assay with Human CD137 ECD, the Kd was determined as 111 nM, the koff came to 0.00136 s⁻¹ and the kon is 12200 M⁻¹ s⁻¹.

B7: H1651L0581 (antibody, V domains shown)
VH: QVQLVESGGGLVQPGRSLRLSCAASGFVFSNVWFHWVRQAPGKGLEWVAQIKDKYNAYADYYAPSVEGRFTISRDDSKNSIYLQMNSLKTEDTAVYYCHYVHYASASTLLPAEGVDAWGQGTTVTVSS
VL: DIVMTQSPLSLPVTPGEPASISCQPSQEVVHMNRNTYLHWYQQKPGQAPRLLIYKVSNRFPGVPDRFSGSGSGTDFTLKISRVEAEDVGVYYCAQGTSHPFTFGQGTKLEIK
notes: Dual-Ig, IgG; also called dBBDu183H1651/dBBDu072L0581
As for B7, in the assay with Human CD3eg linker, the Kd is 517 nM, the koff was 0.0371 s⁻¹ and the kon was 71800 M⁻¹ s⁻¹. In the assay with Human CD137 ECD, this molecule showed a Kd of 43.2 nM, a koff of 0.000603 s⁻¹ and an association rate constant (kon) of 14000 M⁻¹ s⁻¹.

B8: H1647L0581 (antibody, V domains shown)
VH: QVQLVESGGGLVQPGRSLRLSCAASGFKFSNTWFHWVRQAPGKGLEWVAQIKDYYNDYAAYYAPSVKGRFTISRDDSKNSIYLQMNSLKTEDTAVYYCHYVHYASASTLLPAEGVDAWGQGTTVTVSS
VL: DIVMTQSPLSLPVTPGEPASISCQPSQEVVHMNRNTYLHWYQQKPGQAPRLLIYKVSNRFPGVPDRFSGSGSGTDFTLKISRVEAEDVGVYYCAQGTSHPFTFGQGTKLEIK
notes: Dual-Ig, IgG; also called dBBDu183H1647/dBBDu072L0581
With B8, in the assay with Human CD137 ECD, the affinity, expressed as Kd, was 64.8 nM; the koff amounted to 0.000647 s⁻¹; the kon came to 9980 M⁻¹ s⁻¹.

B9: H1649L0581 (antibody, V domains shown)
VH: QVQLVESGGGLVQPGRSLRLSCAASGFVFSNVWFHWVRQAPGKGLEWVAQIKDKYNAYADYYAPSVKERFTISRDDSKNSIYLQMNSLKTEDTAVYYCHYVHYASASTLLPAEGVDAWGQGTTVTVSS
VL: DIVMTQSPLSLPVTPGEPASISCQPSQEVVHMNRNTYLHWYQQKPGQAPRLLIYKVSNRFPGVPDRFSGSGSGTDFTLKISRVEAEDVGVYYCAQGTSHPFTFGQGTKLEIK
notes: Dual-Ig, IgG; also called dBBDu183H1649/dBBDu072L0581
Turning to B9, in the assay with Human CD3eg linker, binding was characterised by a dissociation constant (Kd) of 449 nM, the koff was 0.0336 s⁻¹ and the on-rate (kon) is 75000 M⁻¹ s⁻¹. In the assay with Human CD137 ECD, this molecule came in with a Kd of 42.8 nM, a koff of 0.000553 s⁻¹ and a kon of 12900 M⁻¹ s⁻¹.

B10: H1550L0918 (antibody, V domains shown)
VH: QVQLVESGGGLVQPGRSLRLSCAASGFKFSNVWMHWVRQAPGKGLEWVAQIKDKYNAYAAYYAPSVKGRFTISRDDSKNSIYLQMNSLKTEDTAVYYCHYIHYASASTLLPAFGVDAWGQGTTVTVSS
VL: DIVMTQSPLSLPVTPGEPASISCQPSQEVVHMNNVVYLHWYQQKPGQAPRLLIYKVSNRFPGVPDRFSGSGSGTDFTLKISRVEAEDVGVYYCAQGTSHPFTFGQGTKLEIK
notes: Dual-Ig, IgG; also called H1550L918; dBBDu183H1550/dBBDu072L0918
As for B10, in the assay with Human CD3eg linker, the Kd is 43.8 nM, the koff stood at 0.00316 s⁻¹ and the kon stood at 72000 M⁻¹ s⁻¹. Besides, in the assay with Human CD137 ECD, the Kd came to 530 nM, the off-rate constant (koff) was determined as 0.00579 s⁻¹ and the kon amounted to 10900 M⁻¹ s⁻¹.

B11: H1610L0581 (antibody, V domains shown)
VH: QVQLVESGGGLVQPGRSLRLSCAASGFVFSNVWMHWVRQAPGKGLEWVAQIKDKWNAYAAYYAPSVKGRFTISRDDSKNSIYLQMNSLKTEDTAVYYCHYIHYASASTLLPAEGIDAWGQGTTVTVSS
VL: DIVMTQSPLSLPVTPGEPASISCQPSQEVVHMNRNTYLHWYQQKPGQAPRLLIYKVSNRFPGVPDRFSGSGSGTDFTLKISRVEAEDVGVYYCAQGTSHPFTFGQGTKLEIK
notes: Dual-Ig, IgG; also called H1610L581; dBBDu183H1610/dBBDu072L0581
Regarding B11, in the assay with Human CD3eg linker, binding was characterised by a dissociation constant (Kd) of 20.9 nM, the koff worked out at 0.00142 s⁻¹ and the kon worked out at 68000 M⁻¹ s⁻¹. In the assay with Human CD137 ECD, this molecule returned a Kd of 103 nM, a koff of 0.0011 s⁻¹ and a kon of 10700 M⁻¹ s⁻¹.

B12: H1610L0939 (antibody, V domains shown)
VH: QVQLVESGGGLVQPGRSLRLSCAASGFVFSNVWMHWVRQAPGKGLEWVAQIKDKWNAYAAYYAPSVKGRFTISRDDSKNSIYLQMNSLKTEDTAVYYCHYIHYASASTLLPAEGIDAWGQGTTVTVSS
VL: DIVMTQSPLSLPVTPGEPASISCQPSQEVVHMNRNTYLHWYQQKPGQAPRLLIYKVSNVFPGVPDRFSGSGSGTDFTLKISRVEAEDVGVYYCAQGTHHPFTFGQGTKLEIK
notes: Dual-Ig, IgG; also called H1610L939; dBBDu183H1610/dBBDu072L0939
In the assay with Human CD3eg linker, B12 gave a Kd of 50.7 nM, a koff of 0.00253 s⁻¹ and a kon of 50000 M⁻¹ s⁻¹. Also, in the assay with Human CD137 ECD, the Kd was 61.8 nM, the koff was 0.000801 s⁻¹ and the kon amounted to 13000 M⁻¹ s⁻¹.

B13: H1643L0581 (antibody, V domains shown)
VH: QVQLVESGGGLVQPGRSLRLSCAASGFKFSNVWFHWVRQAPGKGLEWVAQIKDYYNAYAAYYAPSVKGRFTISRDDSKNSIYLQMNSLKTEDTAVYYCHYVHYASASTLLPAEGVDAWGQGTTVTVSS
VL: DIVMTQSPLSLPVTPGEPASISCQPSQEVVHMNRNTYLHWYQQKPGQAPRLLIYKVSNRFPGVPDRFSGSGSGTDFTLKISRVEAEDVGVYYCAQGTSHPFTFGQGTKLEIK
notes: Dual-Ig, IgG; also called H1643L581; dBBDu183H1643/dBBDu072L0581
For B13, in the assay with Human CD3eg linker, the Kd worked out at 265 nM, the koff was found to be 0.0251 s⁻¹ and the kon was 94600 M⁻¹ s⁻¹. In addition, in the assay with Human CD137 ECD, binding was put at a Kd of 49.4 nM, the koff came out at 0.000606 s⁻¹ and the kon was found to be 12300 M⁻¹ s⁻¹.

B14: H1571L0581 (antibody, V domains shown)
VH: QVQLVESGGGLVQPGRSLRLSCAASGFKFSNVWFHWVRQAPGKGLEWVAQIKDKYNAYATYYAPSVKGRFTISRDDSKNSIYLQMNSLKTEDTAVYYCHYVHYASASTLLPAFGVDAWGQGTTVTVSS
VL: DIVMTQSPLSLPVTPGEPASISCQPSQEVVHMNRNTYLHWYQQKPGQAPRLLIYKVSNRFPGVPDRFSGSGSGTDFTLKISRVEAEDVGVYYCAQGTSHPFTFGQGTKLEIK
notes: Dual-Ig, IgG; also called dBBDu183H1571/dBBDu072L0581
In the assay with Human CD3eg linker, B14 showed a Kd of 110 nM, a koff of 0.0156 s⁻¹ and a kon of 142000 M⁻¹ s⁻¹. In the assay with Human CD137 ECD, this molecule showed a Kd of 86.8 nM, a koff of 0.00105 s⁻¹ and a kon of 12100 M⁻¹ s⁻¹.
